From the supplement of paper PMC9112550, “Optimization of the antimicrobial peptide Bac7 by deep mutational scanning” (BMC Biology, 2022)

System: Escherichia coli TOP10
Assay: shrunken log2 fold change of peptide-encoding DNA abundance (4.5 h post-induction vs induction); higher = less antimicrobial activity (less host growth inhibition)
Conditions: time post-induction: 4.5 h; library: site-saturation at positions 5, 18, 19, 20
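Note: peptides expressed intracellularly from a pBAD plasmid library in pooled LB shake-flask culture, induced with 0.3% L-arabinose, DNA abundance read by NGS, three biological replicates, DESeq2 with apeglm shrinkage.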

Row | Sequence | shrunken log2 fold change
1 | RRIRQRPPRLPRPRPRPMCEPRP | -0.00149
2 | RRIRFRPPRLPRPRPRPYMCPRP | -0.0146
3 | RRIRTRPPRLPRPRPRPCMYPRP | -0.183
4 | RRIRPRPPRLPRPRPRPARFPRP | 0.383
5 | RRIRFRPPRLPRPRPRPEMGPRP | 0.0117
6 | RRIRWRPPRLPRPRPRPRLEPRP | 0.778
7 | RRIRERPPRLPRPRPRPDAMPRP | -0.0916
8 | RRIRDRPPRLPRPRPRPIAFPRP | 0.15
9 | RRIRARPPRLPRPRPRPLDCPRP | 0.49
10 | RRIRKRPPRLPRPRPRPVYKPRP | 0.0665
11 | RRIRVRPPRLPRPRPRPPWHPRP | 0.164
12 | RRIRFRPPRLPRPRPRPYPYPRP | -0.1
13 | RRIRNRPPRLPRPRPRPWCMPRP | -0.312
14 | RRIRWRPPRLPRPRPRPFMMPRP | -0.587
15 | RRIRQRPPRLPRPRPRPDIDPRP | -0.078
16 | RRIRVRPPRLPRPRPRPWVAPRP | -0.00183
17 | RRIRHRPPRLPRPRPRPHGIPRP | -0.0284
18 | RRIRERPPRLPRPRPRPLSDPRP | -0.0828
19 | RRIRMRPPRLPRPRPRPQGFPRP | -0.00865
20 | RRIRCRPPRLPRPRPRPQFNPRP | -0.98
21 | RRIRYRPPRLPRPRPRPIMPPRP | -0.948
22 | RRIRARPPRLPRPRPRPRPFPRP | 0.562
23 | RRIRFRPPRLPRPRPRPGNPPRP | -0.00343
24 | RRIRTRPPRLPRPRPRPHWHPRP | -0.576
25 | RRIRTRPPRLPRPRPRPIYHPRP | -0.191

Row | Sequence | shrunken log2 fold change
26 | RRIRWRPPRLPRPRPRPRCAPRP | 0.586
27 | RRIRERPPRLPRPRPRPVIQPRP | 0.0166
28 | RRIRNRPPRLPRPRPRPRRIPRP | 0.0821
29 | RRIRWRPPRLPRPRPRPLSPPRP | -0.097
30 | RRIRNRPPRLPRPRPRPVYQPRP | -0.00185
31 | RRIRNRPPRLPRPRPRPATVPRP | -0.17
32 | RRIRYRPPRLPRPRPRPSNMPRP | -1.1
33 | RRIRIRPPRLPRPRPRPFENPRP | -0.00783
34 | RRIRERPPRLPRPRPRPVWYPRP | -0.383
35 | RRIRNRPPRLPRPRPRPMFCPRP | 0.0294
36 | RRIRVRPPRLPRPRPRPAWGPRP | 0.515
37 | RRIRHRPPRLPRPRPRPGMWPRP | -0.0849
38 | RRIRMRPPRLPRPRPRPSTFPRP | 0.147
39 | RRIRKRPPRLPRPRPRPEYAPRP | -0.000279
40 | RRIRPRPPRLPRPRPRPQPHPRP | 0.138
41 | RRIRTRPPRLPRPRPRPKVPPRP | -0.0154
42 | RRIRGRPPRLPRPRPRPCCPPRP | 0.0328
43 | RRIRNRPPRLPRPRPRPPPIPRP | 0.801
44 | RRIRERPPRLPRPRPRPVMLPRP | 0.055
45 | RRIRRRPPRLPRPRPRPILHPRP | -0.0819
46 | RRIRLRPPRLPRPRPRPAWRPRP | 0.454
47 | RRIRYRPPRLPRPRPRPQTVPRP | -0.261
48 | RRIRCRPPRLPRPRPRPTNKPRP | -0.0578
49 | RRIRPRPPRLPRPRPRPYWLPRP | -0.377
50 | RRIRNRPPRLPRPRPRPIICPRP | -0.0922

Row | Sequence | shrunken log2 fold change
51 | RRIRERPPRLPRPRPRPEMTPRP | -0.0236
52 | RRIRYRPPRLPRPRPRPFISPRP | -0.341
53 | RRIRFRPPRLPRPRPRPCIIPRP | -0.568
54 | RRIRTRPPRLPRPRPRPAVWPRP | 0.556
55 | RRIRFRPPRLPRPRPRPYINPRP | -0.647
56 | RRIRMRPPRLPRPRPRPYTIPRP | 0.0978
57 | RRIRLRPPRLPRPRPRPHEKPRP | 0.0162
58 | RRIRVRPPRLPRPRPRPIHRPRP | -0.3
59 | RRIRYRPPRLPRPRPRPKMIPRP | -0.537
60 | RRIRLRPPRLPRPRPRPSDIPRP | -0.0623
61 | RRIRSRPPRLPRPRPRPDVVPRP | -0.448
62 | RRIRHRPPRLPRPRPRPTMIPRP | -0.112
63 | RRIRERPPRLPRPRPRPPYIPRP | -0.252
64 | RRIRLRPPRLPRPRPRPITCPRP | -0.513
65 | RRIRWRPPRLPRPRPRPEGTPRP | 0.103
66 | RRIRMRPPRLPRPRPRPFWHPRP | -0.00226
67 | RRIRWRPPRLPRPRPRPRIHPRP | 0.178
68 | RRIRVRPPRLPRPRPRPQCWPRP | 0.198
69 | RRIRLRPPRLPRPRPRPIHVPRP | -0.0124
70 | RRIRPRPPRLPRPRPRPEPVPRP | 0.12
71 | RRIRDRPPRLPRPRPRPHIFPRP | -0.361
72 | RRIRKRPPRLPRPRPRPVEKPRP | -0.0124
73 | RRIRHRPPRLPRPRPRPFCQPRP | -0.243
74 | RRIRDRPPRLPRPRPRPCFMPRP | 0.0118
75 | RRIRKRPPRLPRPRPRPDDWPRP | 1.73

Row | Sequence | shrunken log2 fold change
76 | RRIRIRPPRLPRPRPRPKIHPRP | -0.464
77 | RRIRHRPPRLPRPRPRPLRKPRP | 0.0993
78 | RRIRPRPPRLPRPRPRPEWNPRP | 0.07
79 | RRIRMRPPRLPRPRPRPQCYPRP | -0.0225
80 | RRIRVRPPRLPRPRPRPKVNPRP | -0.288
81 | RRIRVRPPRLPRPRPRPQNHPRP | -0.608
82 | RRIRKRPPRLPRPRPRPMQTPRP | 0.753
83 | RRIRDRPPRLPRPRPRPLDVPRP | -0.0992
84 | RRIRKRPPRLPRPRPRPEWLPRP | 0.576
85 | RRIRRRPPRLPRPRPRPVRCPRP | 0.424
86 | RRIRRRPPRLPRPRPRPGDAPRP | 0.782
87 | RRIRDRPPRLPRPRPRPEPCPRP | 0.064
88 | RRIRPRPPRLPRPRPRPIEAPRP | 0.0713
89 | RRIRGRPPRLPRPRPRPGTQPRP | 0.143
90 | RRIRQRPPRLPRPRPRPWMIPRP | 0.0219
91 | RRIRRRPPRLPRPRPRPGIQPRP | 0.0906
92 | RRIRSRPPRLPRPRPRPNTQPRP | -0.274
93 | RRIRIRPPRLPRPRPRPRRPPRP | 0.233
94 | RRIRSRPPRLPRPRPRPWNSPRP | -0.19
95 | RRIRGRPPRLPRPRPRPTSHPRP | 0.64
96 | RRIRVRPPRLPRPRPRPCVSPRP | -0.0282
97 | RRIRIRPPRLPRPRPRPLPTPRP | 0.0405
98 | RRIRRRPPRLPRPRPRPVMCPRP | 0.0382
99 | RRIRLRPPRLPRPRPRPEDGPRP | -0.0468
100 | RRIRSRPPRLPRPRPRPKWYPRP | -0.336

Row | Sequence | shrunken log2 fold change
101 | RRIRCRPPRLPRPRPRPKYGPRP | 0.0136
102 | RRIRIRPPRLPRPRPRPTGWPRP | 0.19
103 | RRIRCRPPRLPRPRPRPMLEPRP | 0.293
104 | RRIRYRPPRLPRPRPRPPYRPRP | -0.714
105 | RRIRTRPPRLPRPRPRPKRYPRP | -0.154
106 | RRIRPRPPRLPRPRPRPLYYPRP | -0.985
107 | RRIRIRPPRLPRPRPRPHCQPRP | -0.173
108 | RRIRHRPPRLPRPRPRPIPWPRP | 0.0217
109 | RRIRMRPPRLPRPRPRPYVGPRP | 0.0299
110 | RRIRLRPPRLPRPRPRPMKKPRP | 0.0162
111 | RRIRDRPPRLPRPRPRPEDNPRP | 1.31
112 | RRIRGRPPRLPRPRPRPLAIPRP | 0.567
113 | RRIRGRPPRLPRPRPRPRVSPRP | 0.45
114 | RRIRHRPPRLPRPRPRPPDHPRP | 0.265
115 | RRIRARPPRLPRPRPRPANLPRP | 0.177
116 | RRIRYRPPRLPRPRPRPQYPPRP | -0.733
117 | RRIRWRPPRLPRPRPRPAIWPRP | 0.596
118 | RRIRLRPPRLPRPRPRPCRMPRP | -0.0411
119 | RRIRVRPPRLPRPRPRPDDIPRP | -0.442
120 | RRIRHRPPRLPRPRPRPRSRPRP | -0.132
121 | RRIRVRPPRLPRPRPRPIGDPRP | 0.0238
122 | RRIRCRPPRLPRPRPRPDSMPRP | -0.0886
123 | RRIRERPPRLPRPRPRPYGFPRP | -0.382
124 | RRIRERPPRLPRPRPRPNYMPRP | -0.667
125 | RRIRIRPPRLPRPRPRPPTKPRP | 0.126
